Test results published in publication PMC2859563.

Molecular target: T1, SmcR (Vibrio vulnificus, UniProt Q9L8G8 1-205)
T1 sequence: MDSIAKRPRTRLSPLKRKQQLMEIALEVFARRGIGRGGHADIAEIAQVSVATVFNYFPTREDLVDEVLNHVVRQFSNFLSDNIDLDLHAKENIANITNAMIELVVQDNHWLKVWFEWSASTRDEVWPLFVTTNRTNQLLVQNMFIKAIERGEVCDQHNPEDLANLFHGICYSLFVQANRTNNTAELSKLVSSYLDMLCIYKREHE
Experiment: ITC

B1: PvvpE (dsDNA)
DNA 1: ATCTTATTGATAAATCTGCGTAAAAAA
DNA 2: TTTTTTACGCAGATTTATCAATAAGAT
For B1, the Kd was 2800 nM.

B2: PvvpE-mod (dsDNA)
DNA 1: TTCTTATTGATAAATTTGTGAATAAAA
DNA 2: TTTTATTCACAAATTTATCAATAAGAA
B2 showed a Kd of 76 nM.
